What follows are sequences tested against atf-7 (C07G2.2) (Caenorhabditis elegans) (UniProt Q86MD3).
atf-7 (C07G2.2) (Caenorhabditis elegans), sequence (Q86MD3 339-508): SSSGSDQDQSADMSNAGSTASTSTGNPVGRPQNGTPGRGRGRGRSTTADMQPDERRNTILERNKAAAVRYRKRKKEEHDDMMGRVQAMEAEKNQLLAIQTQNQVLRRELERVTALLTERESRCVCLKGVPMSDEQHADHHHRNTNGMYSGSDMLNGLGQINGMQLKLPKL

Sequence | binding signal (PBM E-score (-0.5 to 0.5))
ACGTCATG (double strand) [8-mer ACGTCATG] | 0.496
AACGTCAT (double strand) [8-mer AACGTCAT] | 0.495

These sequences were tested against gei-3 (T22H6.6) (Caenorhabditis elegans) (UniProt Q0G833).
gei-3 (T22H6.6) (Caenorhabditis elegans), sequence (Q0G833 entry or part of it): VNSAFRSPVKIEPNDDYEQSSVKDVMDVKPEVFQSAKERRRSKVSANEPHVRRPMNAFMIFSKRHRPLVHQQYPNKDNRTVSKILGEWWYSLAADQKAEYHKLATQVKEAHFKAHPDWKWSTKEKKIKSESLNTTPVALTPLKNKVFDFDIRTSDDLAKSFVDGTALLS

Sequence | binding signal (PBM E-score (-0.5 to 0.5))
AATGAATG (double strand) [8-mer AATGAATG] | 0.481
TCAATGAA (double strand) [8-mer TCAATGAA] | 0.485
CCCATTCA (double strand) [8-mer CCCATTCA] | 0.478
ATGAATGG (double strand) [8-mer ATGAATGG] | 0.489
TGAATGAA (double strand) [8-mer TGAATGAA] | 0.491
CATTGATA (double strand) [8-mer CATTGATA] | 0.472
CATTCATA (double strand) [8-mer CATTCATA] | 0.474
ATCAATGA (double strand) [8-mer ATCAATGA] | 0.485
TCAATGGA (double strand) [8-mer TCAATGGA] | 0.473
ATGAATGA (double strand) [8-mer ATGAATGA] | 0.489
AAATGAAT (double strand) [8-mer AAATGAAT] | 0.472
TGAATTAA (double strand) [8-mer TGAATTAA] | 0.474
TCAATTGA (double strand) [8-mer TCAATTGA] | 0.484
ATCAATGG (double strand) [8-mer ATCAATGG] | 0.477
TCCATTCA (double strand) [8-mer TCCATTCA] | 0.48

Each sequence was assayed against T1, hlh-12 (C28C12.8) (Caenorhabditis elegans) (UniProt Q18277).
T1 sequence: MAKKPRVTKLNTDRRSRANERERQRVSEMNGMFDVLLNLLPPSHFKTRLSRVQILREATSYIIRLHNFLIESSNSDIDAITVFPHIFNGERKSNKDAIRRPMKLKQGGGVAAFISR

Sequence | binding signal (PBM E-score (-0.5 to 0.5))
AACAGCTG (double strand) [8-mer AACAGCTG] | 0.481
ACCAGCTG (double strand) [8-mer ACCAGCTG] | 0.456
ACAGCTGT (double strand) [8-mer ACAGCTGT] | 0.496
AACATATG (double strand) [8-mer AACATATG] | 0.465
ACATATGT (double strand) [8-mer ACATATGT] | 0.476
ACAGATGT (double strand) [8-mer ACAGATGT] | 0.478
AACAGATG (double strand) [8-mer AACAGATG] | 0.468
ACATCTGG (double strand) [8-mer ACATCTGG] | 0.481
ACAGCTGG (double strand) [8-mer ACAGCTGG] | 0.481
ACCATCTG (double strand) [8-mer ACCATCTG] | 0.482
CAGCTGTC (double strand) [8-mer CAGCTGTC] | 0.479
AACATCTG (double strand) [8-mer AACATCTG] | 0.481
ACAGATGG (double strand) [8-mer ACAGATGG] | 0.478
CACAGCTG (double strand) [8-mer CACAGCTG] | 0.475

Each sequence was assayed against T2, skn-1 (T19E7.2) (Caenorhabditis elegans) (UniProt P34707).
T2 sequence: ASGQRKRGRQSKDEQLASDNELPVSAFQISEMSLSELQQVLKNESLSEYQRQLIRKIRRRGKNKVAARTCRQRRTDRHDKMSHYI

Sequence | binding signal (PBM E-score (-0.5 to 0.5))
ATGACAAA (double strand) [8-mer ATGACAAA] | 0.493
GTCATCAC (double strand) [8-mer GTCATCAC] | 0.492
AGTCATCA (double strand) [8-mer AGTCATCA] | 0.491
ATGTCATC (double strand) [8-mer ATGTCATC] | 0.494
ATATCATC (double strand) [8-mer ATATCATC] | 0.485
GGATGACA (double strand) [8-mer GGATGACA] | 0.489

The sequences below were run against T3, tbx-38 (C24H11.3) (Caenorhabditis elegans) (UniProt Q9XVD5).
T3 sequence: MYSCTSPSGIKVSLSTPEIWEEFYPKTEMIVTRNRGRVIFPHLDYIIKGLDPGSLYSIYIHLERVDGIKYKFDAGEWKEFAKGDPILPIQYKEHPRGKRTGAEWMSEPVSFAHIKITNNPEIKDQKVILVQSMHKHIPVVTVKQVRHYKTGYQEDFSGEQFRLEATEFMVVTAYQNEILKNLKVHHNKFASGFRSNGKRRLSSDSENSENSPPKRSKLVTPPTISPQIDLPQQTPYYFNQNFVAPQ

Sequence | binding signal (PBM E-score (-0.5 to 0.5))
ATTCACAC (double strand) [8-mer ATTCACAC] | 0.494
AGGTGTTA (double strand) [8-mer AGGTGTTA] | 0.494
GTGTGAAA (double strand) [8-mer GTGTGAAA] | 0.483
GAGTGTGA (double strand) [8-mer GAGTGTGA] | 0.484
AGTGTGAA (double strand) [8-mer AGTGTGAA] | 0.496
GGTGTGAA (double strand) [8-mer GGTGTGAA] | 0.497
GGTGCGAA (double strand) [8-mer GGTGCGAA] | 0.494
GGGTGCGA (double strand) [8-mer GGGTGCGA] | 0.485
AGGTGTGA (double strand) [8-mer AGGTGTGA] | 0.498
ATTCGCAC (double strand) [8-mer ATTCGCAC] | 0.489
AGGTGCGA (double strand) [8-mer AGGTGCGA] | 0.49
GGGTGTGA (double strand) [8-mer GGGTGTGA] | 0.487
GTGTGAAC (double strand) [8-mer GTGTGAAC] | 0.492
AAGTGTGA (double strand) [8-mer AAGTGTGA] | 0.494

What follows are sequences tested against T4, tbx-39 (Y73F8A.16) (Caenorhabditis elegans) (UniProt Q9NA56).
T4 sequence: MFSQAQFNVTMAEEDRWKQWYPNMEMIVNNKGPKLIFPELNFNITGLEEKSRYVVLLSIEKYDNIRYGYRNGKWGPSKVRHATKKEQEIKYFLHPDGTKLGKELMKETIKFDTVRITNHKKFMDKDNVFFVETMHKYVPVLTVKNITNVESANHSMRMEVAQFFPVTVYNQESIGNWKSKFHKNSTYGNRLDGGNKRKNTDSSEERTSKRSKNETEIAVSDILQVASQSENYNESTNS

Sequence | binding signal (PBM E-score (-0.5 to 0.5))
CCAAGTTC (double strand) [8-mer CCAAGTTC] | 0.477
AACTTGGA (double strand) [8-mer AACTTGGA] | 0.473
CCAAGTTA (double strand) [8-mer CCAAGTTA] | 0.495
CTAAGTTA (double strand) [8-mer CTAAGTTA] | 0.48
AACTTAGC (double strand) [8-mer AACTTAGC] | 0.493
AACTTAGT (double strand) [8-mer AACTTAGT] | 0.479
CTACCAAG (double strand) [8-mer CTACCAAG] | 0.473
AACTTGGT (double strand) [8-mer AACTTGGT] | 0.496
AAACTTGG (double strand) [8-mer AAACTTGG] | 0.487
CTTGGCAC (double strand) [8-mer CTTGGCAC] | 0.477
AACTTGGC (double strand) [8-mer AACTTGGC] | 0.497
ACTTGGTA (double strand) [8-mer ACTTGGTA] | 0.472
AACTTCGC (double strand) [8-mer AACTTCGC] | 0.467
ACTTGGCA (double strand) [8-mer ACTTGGCA] | 0.492
TGTACCAA (double strand) [8-mer TGTACCAA] | 0.485

What follows are sequences tested against T5, tbx-43 (Y46E12A.4) (Caenorhabditis elegans) (UniProt Q1T6W8).
T5 sequence: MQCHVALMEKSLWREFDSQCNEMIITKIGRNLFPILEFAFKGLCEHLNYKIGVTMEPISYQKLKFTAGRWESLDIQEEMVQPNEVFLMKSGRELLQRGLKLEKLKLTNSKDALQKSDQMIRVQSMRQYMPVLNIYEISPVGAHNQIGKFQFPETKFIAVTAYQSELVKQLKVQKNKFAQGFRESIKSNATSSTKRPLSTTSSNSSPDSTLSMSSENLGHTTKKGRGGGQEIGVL

Sequence | binding signal (PBM E-score (-0.5 to 0.5))
ATTCACAC (double strand) [8-mer ATTCACAC] | 0.489
AGGTGTTA (double strand) [8-mer AGGTGTTA] | 0.497
GTGTGAAA (double strand) [8-mer GTGTGAAA] | 0.494
AGTGTGAA (double strand) [8-mer AGTGTGAA] | 0.494
ATCACACC (double strand) [8-mer ATCACACC] | 0.486
GGTGTGAA (double strand) [8-mer GGTGTGAA] | 0.499
GGTGCGAA (double strand) [8-mer GGTGCGAA] | 0.48
AGGTGTGA (double strand) [8-mer AGGTGTGA] | 0.499
AGGTGTCA (double strand) [8-mer AGGTGTCA] | 0.497
AGGTGCGA (double strand) [8-mer AGGTGCGA] | 0.48
GGGTGTCA (double strand) [8-mer GGGTGTCA] | 0.484
GGGTGTGA (double strand) [8-mer GGGTGTGA] | 0.49
GTGTGAAC (double strand) [8-mer GTGTGAAC] | 0.485
GGTGTCAA (double strand) [8-mer GGTGTCAA] | 0.495

Each sequence was assayed against T6, zip-3 (W07G1.3) (Caenorhabditis elegans) (UniProt Q9XUK2).
T6 sequence: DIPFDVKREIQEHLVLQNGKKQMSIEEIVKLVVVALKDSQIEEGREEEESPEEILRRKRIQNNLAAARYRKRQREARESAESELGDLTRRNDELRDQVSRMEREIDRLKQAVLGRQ

Sequence | binding signal (PBM E-score (-0.5 to 0.5))
ACGTCATG (double strand) [8-mer ACGTCATG] | 0.486
ATATGACG (double strand) [8-mer ATATGACG] | 0.493
GATGACGC (double strand) [8-mer GATGACGC] | 0.493
AACGTCAT (double strand) [8-mer AACGTCAT] | 0.486
ATGACGCG (double strand) [8-mer ATGACGCG] | 0.488
ATATGATG (double strand) [8-mer ATATGATG] | 0.486
AGATGACG (double strand) [8-mer AGATGACG] | 0.487

— publication PMC4434323
